Experiment [1] addresses T1, Recombinant human transferrin receptor (human, UniProt P02786 89-760, limits assumed).
T1 construct: Recombinant protein; also called transferrin receptor (human protein)
The experiment in a line: ELISA: recombinant human transferrin receptor coated at 1 ug/mL, biotinylated peptide titrated, detection with streptavidin-HRP/TMB, absorbance at 450 nm. As to the method: (§1) Recombinant human transferrin receptor was absorbed onto high binding ELISA plates at 1 μg/mL. […] Retained MTS peptide was detected using streptavidin-HRP and TMB reagent. The absorbance was measured at 450 nm and is proportional to the amount of MTS peptide captured by transferrin receptor. As shown, MTS2_V1-2 binds to […] in a concentration dependent manner which saturates at higher concentrations. By comparison, MTS3_V1-2 and a scrambled control peptide of MTS2_V1-2 show no binding. The binding affinity of MTS2_V1-2 for transferrin receptor was determined by biolayer interferometry on a OctetRED 96 system. The biotinylated MTS2_V1-2 peptide was captured on streptavidin probe. The kon and koff rate were determined at various concentrations of human or mouse transferrin receptor allowing for determination of the dissociation constant.

In experiment [2] the target is T2, Mouse transferrin receptor (mouse, UniProt Q62351 89-763, limits assumed).
T2 construct: Used as the analyte in BLI; also called mouse receptor
T2 sequence (Q62351 89-763 limits assumed): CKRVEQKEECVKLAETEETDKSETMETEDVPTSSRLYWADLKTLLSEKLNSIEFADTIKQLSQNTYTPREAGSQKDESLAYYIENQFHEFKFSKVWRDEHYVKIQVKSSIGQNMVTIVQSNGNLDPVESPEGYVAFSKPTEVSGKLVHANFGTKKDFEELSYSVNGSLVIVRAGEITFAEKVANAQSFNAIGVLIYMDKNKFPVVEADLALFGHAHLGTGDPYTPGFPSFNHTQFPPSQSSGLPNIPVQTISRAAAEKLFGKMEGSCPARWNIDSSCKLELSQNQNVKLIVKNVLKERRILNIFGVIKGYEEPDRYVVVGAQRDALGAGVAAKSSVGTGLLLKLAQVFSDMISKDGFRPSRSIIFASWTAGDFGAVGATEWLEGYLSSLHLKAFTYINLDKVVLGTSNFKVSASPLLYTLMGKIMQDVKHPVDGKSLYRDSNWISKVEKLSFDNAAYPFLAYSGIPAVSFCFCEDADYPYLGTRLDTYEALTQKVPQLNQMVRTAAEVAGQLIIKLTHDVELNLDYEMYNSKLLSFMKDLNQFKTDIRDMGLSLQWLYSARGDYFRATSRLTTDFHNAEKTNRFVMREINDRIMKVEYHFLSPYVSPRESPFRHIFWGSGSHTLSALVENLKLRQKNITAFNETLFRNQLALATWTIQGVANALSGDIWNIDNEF
In words: biolayer interferometry (OctetRED 96); biotinylated peptide on streptavidin probe, receptor as analyte; mouse transferrin receptor. As to the method: as §1
On the technique in general: In BLI a coated tip is dipped into the sample, and binding shifts an interference pattern.

For experiment [3], the target named is T1, Recombinant human transferrin receptor. In words: biolayer interferometry (OctetRED 96); biotinylated peptide on streptavidin probe, receptor as analyte; human transferrin receptor. The protocol:
as §1

Ends that are not written are not given here.

T1 sequence (P02786 89-760 limits assumed): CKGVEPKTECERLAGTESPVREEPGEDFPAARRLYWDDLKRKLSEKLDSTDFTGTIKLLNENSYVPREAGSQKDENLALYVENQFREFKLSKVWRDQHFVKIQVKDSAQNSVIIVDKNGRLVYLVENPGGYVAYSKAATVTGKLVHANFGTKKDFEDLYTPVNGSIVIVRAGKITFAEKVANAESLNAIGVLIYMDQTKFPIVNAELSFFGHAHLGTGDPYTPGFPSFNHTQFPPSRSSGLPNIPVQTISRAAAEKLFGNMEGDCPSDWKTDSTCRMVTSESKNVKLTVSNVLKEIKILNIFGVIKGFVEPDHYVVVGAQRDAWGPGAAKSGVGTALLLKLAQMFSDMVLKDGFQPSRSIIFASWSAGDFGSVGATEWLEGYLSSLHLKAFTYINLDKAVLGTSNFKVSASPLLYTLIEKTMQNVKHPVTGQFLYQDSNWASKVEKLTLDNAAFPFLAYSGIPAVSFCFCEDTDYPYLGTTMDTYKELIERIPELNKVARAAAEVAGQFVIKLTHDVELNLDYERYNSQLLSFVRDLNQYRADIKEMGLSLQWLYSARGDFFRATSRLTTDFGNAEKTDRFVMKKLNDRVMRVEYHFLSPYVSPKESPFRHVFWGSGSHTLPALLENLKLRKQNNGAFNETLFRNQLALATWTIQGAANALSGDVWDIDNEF

B1: MTS3_V1-2 (biotinylated dimeric Ac-SKETYSMNAQRQHERS) (peptide)
peptide: Ac-SKETYSMNAQRQHERS
modifications: also: dimer: C-terminus joined through a linker to a dimeric core, biotinylated, place not given here
notes: Biotinylated for the ELISA; also called dimer version of MTS3_V1; biotinylated MTS3_V1-2
On to B1, for which the binding result in experiment [1] is reported as “no binding (tested: 1000 nM)”.

B2: MTS2_V1-2 (biotinylated dimeric Ac-FPSWTSKNQQWTNQRQ) (peptide)
peptide: Ac-FPSWTSKNQQWTNQRQ
modifications: also: dimer: C-terminus joined through a linker to a dimeric core, biotinylated, place not given here
notes: Biotinylated for the ELISA and for capture on the streptavidin probe in BLI; also called dimer version of MTS2_V1; biotinylated MTS2_V1-2
Turning to B2, in experiment [1], the EC50 (read off the curve) (commonly the concentration that produces a half-maximal response) is roughly 100 nM. The Kd (usually the equilibrium constant for the complex coming apart) in experiment [2] turned out to be 12 nM; in experiment [3], 210 nM.
